Patent publication US20200283521A1 (GRANULAR THERAPEUTICS, published 2020)

Tests used:
[1] = target: T1, human C-KIT, full length, on cells (human, UniProt P10721 26-976); assay: flow cytometry, CHO-K1 transfectants
T1 construct: full-length cDNA stably transfected in CHO-K1; also used here for endogenous C-KIT of TF-1 cells; also called human C-KIT+ CHO-K1 cells; C-KIT on TF-1 cells

human C-KIT-Fc = target: T2, human C-KIT-Fc (human, UniProt P10721 26-524); assay: direct titration ELISA on coated C-KIT-Fc, IgG1 format
T2 construct: also called biotinylated human C-KIT-Fc; not shown: Fc part not described

binding result [1]: binds
binding result (human C-KIT-Fc): no binding (tested: 10 µg/ml)
B1: MH5.33 (antibody, IgG1, V domains shown)
VH: QVQLVQSGAEVKKPGASVKVSCKASGYTFTNYYMNWVRQAPGQGLEWMGRIYPASGNTYYAQKFQGRVTMTRDTSTSTVYMELSSLRSEDTAVYYCARGVWYYDYWGQGTLVTVSS
VL: DIQMTQSPSSLSASVGDRVTITCRASQGIRTNLAWFQQKPGKAPKSLIYAASSLQSGVPSRFSGSGSGTDFTLTISSLQPEDFATYYCQQYANYPRTFGGGTKVEIK
notes: IgG1
